Source: publication PMC11358308, “Structure-based humanization of a therapeutic antibody for multiple myeloma” (Journal of Molecular Medicine (Berlin, Germany), 2024)
Where a chain is given by its changes, count along the chain named. Names may count otherwise. Blank lines part the entries; values can stand above or below the binder they belong to.

Tests used:
Settings in all cases: both partners purified
[1] = biological target: T1, human B-cell maturation antigen (BCMA), extracellular domain (Homo sapiens (Human)., UniProt Q02223); experiment: SPR; ProteOn XPR36; whole IgG (15 µg/ml) immobilised on GLH chip by amine chemistry; BCMA as mobile phase in PBS with 0.005% Tween-20 (0.4-90 nM hBCMA, 2.7 nM-1 µM cBCMA); Kd from kon and koff, single-site model
T1 construct: B-cell maturation antigen (BCMA), human; soluble form used as mobile phase in SPR and in the Fab:BCMA crystals; holds the DxL loop (L17) and H19; also called hBCMA; human BCMA
T1 sequence (Q02223 1-54): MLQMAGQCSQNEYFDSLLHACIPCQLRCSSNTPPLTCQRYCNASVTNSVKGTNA

cynomolgus BCMA = biological target: T2, cynomolgus BCMA (Macaca fascicularis, UniProt A0A2K5UD97); experiment: as above
T2 construct: B-cell maturation antigen (BCMA), cynomolgus monkey (macaque); differs from human BCMA at three positions: alanine 20 is aspartic acid, isoleucine 22 is lysine, asparagine 31 of hBCMA is deleted; also called cynoBCMA; cBCMA

[2] = biological target: T1, human B-cell maturation antigen (BCMA), …; experiment: crystal structure; Fab:BCMA complexes; 21% PEG 3350, 0.1 M BisTris pH 6.5, 5 mM CuCl2, 20 °C; molecular replacement

B1: J22.9-H, humanized IgG (all humanizing substitutions in VH and VL except A46L in VL) (antibody, V domains shown)
VH: EVQLVESGGGLVQPGGSLRLSCAASGFTFSRYWMSWVRQAPGKGLVWVGEINPDSSTINYAPSLKDKFTISRDNAKNTLYLQMNSLRAEDTAVYYCASLYYDYGDAMDYWGQGTLVTVSS
VL: EIVMTQSPATLSVSPGERATLSCKASQSVDSNVAWYQQKPGQAPRALIYSASLRFSGIPARFSGSGSGTEFTLTISSLQSEDFAVYYCQQYNNYPLTFGAGTKLELK
notes: humanized VH (hVH, 16 changes against the mouse VH); human IgG1 heavy chain constant region, as told for J22.9-xi; Fab light chain in PDB 8QY9; whole IgG in SPR and FACS; source: expressed, purified
Kd [1]: 15 nM
binding result (cynomolgus BCMA): binds

B3: J22.9-FSY, humanized and CDR-optimized IgG (antibody, V domains shown)
VH: B1 VH with M34F, D54S, M107Y
VL: B1 VL with D30E
notes: as the VH of m5 (J22.9-H); human IgG1 heavy chain constant region, as told for J22.9-xi; as the light chain of m5 (J22.9-H; no structure of this variant; source: expressed, purified)
binding result [1]: binds
binding result (cynomolgus BCMA): binds

B4: J22.9-ISY, humanized and CDR-optimized IgG (antibody, V domains shown)
VH: B1 VH with M34I, D54S, M107Y
VL: B1 VL with D30E
notes: as the VH of m5 (J22.9-H; human IgG1 heavy chain constant region, as told for J22.9-xi; source: expressed, purified)
binding result [1]: binds
binding result (cynomolgus BCMA): binds

More lines, now with the values ahead:

binding result [2]: binds
B2: J22.9-ISY Fab fragment (Fab, V domains shown)
VH: B1 VH with M34I, D54S, M107Y
VL: B1 VL with D30E
notes: Fab heavy chain; as the light chain of m7 (light chain of J22.9-H with D30E); Crystallised in complex with BCMA

Kd [1]: 0.28 nM
binding result (cynomolgus BCMA): binds
B5: J22.9-xi, chimaeric mouse/human IgG (antibody, V domains shown)
VH: QVQLQQSGGGLVQPGGSLKLSCAASGIDFSRYWMSWVRRAPGKGLEWIGEINPDSSTINYAPSLKDKFIISRDNAKNTLYLQMSKVRSEDTALYYCASLYYDYGDAMDYWGQGTSVTVSS
VL: DIVMTQSQRFMTTSVGDRVSVTCKASQSVDSNVAWYQQKPRQSPKALIFSASLRFSGVPARFTGSGSGTDFTLTISNLQSEDLAEYFCQQYNNYPLTFGAGTKLELK
notes: mouse VH of J22.9 (mVH); mouse VL of J22.9 (mVL); Fab light chain in PDB 4ZFO; IgG1; whole IgG immobilised in SPR
